Data: patent US20240316011A1, “ANTI-FIBROSIS PHARMACEUTICAL COMPOSITION AND APPLICATION THEREOF” (West China Second University Hospital, priority 2020, published 2024)

Tests used:
TIMP1 = details: old mice after PNX, PH, or kidney I/R
Description: Macrophages/monocytes were isolated from indicated mouse tissues via antibody-coated beads isolation after PNX, PH, or Kid I/R. Expression of genes was examined by quantitative PCR.

NRP1 = assay: HDAC and DNMT inhibitor treatment of old mice: NRP1 protein in isolated ECs (immunoblot); format: in vivo, mouse; details: old mice after PNX; 10 mg/kg VPA, 0.5 mg/kg AZA
Procedure: Injection of growth factor and treatment of HDAC and DNMT inhibitors. Three months old (young) mice were subjected to PNX, PH or kidney I/R and injected with 20 μg/kg […] or equal molar amounts of PDGF-BB, HGF, VEGF165, or TGFβ1 every three days. 3-mon Nrp1^+/+, Nrp1^iΔEC/iΔEC, or […] mice were also treated with […]. To test the regulation of […] and NRP1, old mice were treated with 10 mg/kg HDAC inhibitor VPA, 0.5 mg/kg DNMT1 inhibitor azacitidine (AZA), or combinatorial treatment of VPA and AZA (VPA+AZA). Expression of EPCR and NRP1 proteins in isolated lung, liver, and kidney ECs were tested by immunoblot, and […] amounts in homogenized organs was tested by ELISA.

[1] = system: Lung and liver fibroblast cells; assay: TIMP1 treatment of lung fibroblast and liver stellate cell (immunoblot); format: cell-based, mouse
Procedure: TIMP1 treatment of lung fibroblast and liver stellate cell. Lung and liver fibroblast cells were from ScienceCell Research Laboratories and cultured as described previously (Reference 8). Lung and liver fibroblast cells were treated with 20 ng/ml TIMP1, 10 ng/ml TGFβ1, or 20 ng/ml TIMP1 and 10 ng/ml TGFβ1. To identify the role of β1 integrin in TIMP1-mediated fibroblast activation, p1 integrin was silenced in fibroblast cells by shRNA. After treatment, lung and liver fibroblast cells were retrieved for analysis of Smad2 phosphorylation and SMA protein expression by immunoblot. Smad2 phosphorylation and SMA protein expression were quantified by densitometry of immunoblot.

EPCR [2] = assay: Growth factor injection after PH: EPCR in liver ECs; format: in vivo, mouse; details: liver lacking endothelial Nrp1 or Hif2a
Procedure: Mouse lung regeneration and repair models. To test mouse lung alveolar regeneration and repair, models of left lung PNX (Reference 19) and lung injury (Reference 7) were adapted. Mice were anesthetized with a cocktail of ketamine (100 mg/kg) and xylazine (10 mg/kg). PNX was carried out when left lung lobe was resected with a suture tied around the hilum. PCECs were purified from 20 months (designated as old) and 3 months old (designated as young) mice after PNX, and total RNA was isolated and subjected to transcriptome analysis as described. Intratracheal injection of 2 U/kg bleomycin was employed to induce lung injury. To block EPCR signaling, mice were intraperitoneally injected with EPCR neutralizing antibody 1560 at 1.5 mg/kg (Reference 46) after PNX and Bleo injection. Young Nrp1^iΔEC/iΔEC Hif2a^iΔEC/iΔEC, and control mice were also administered with 20 μg/kg mouse P1GF or same molar amounts of HGF and PDGF-BB (Peprotech) after PNX and PH. […] At the described time points, pulmonary function and oxygen tension in arterial blood of treated mice were measured as previously described (Reference 7). To measure cell proliferation, 100 mg/kg 5-ethynyl-2′-deoxyuridine (EDU) was i.p. injected into mice one hour before sacrificing, and EDU incorporation was measured by EDU cell proliferation kit. […]

EPCR [3] = assay: Growth factor injection after PNX: EPCR / HIF2α in lung ECs; format: in vivo, mouse
Procedure: Mouse lung regeneration and repair models. To test mouse lung alveolar regeneration and repair, models of left lung PNX (Reference 19) and lung injury (Reference 7) were adapted. Mice were anesthetized with a cocktail of ketamine (100 mg/kg) and xylazine (10 mg/kg). PNX was carried out when left lung lobe was resected with a suture tied around the hilum. PCECs were purified from 20 months (designated as old) and 3 months old (designated as young) mice after PNX, and total RNA was isolated and subjected to transcriptome analysis as described. Intratracheal injection of 2 U/kg bleomycin was employed to induce lung injury. To block EPCR signaling, mice were intraperitoneally injected with EPCR neutralizing antibody 1560 at 1.5 mg/kg (Reference 46) after PNX and Bleo injection. Young Nrp1^iΔEC/iΔEC Hif2a^iΔEC/iΔEC, and control mice were also administered with 20 μg/kg mouse P1GF or same molar amounts of HGF and PDGF-BB (Peprotech) after PNX and PH. In addition, repeated intratracheal hydrochloric acid injection models were employed to induce lung injury (Reference 76). Orotracheal instillation was performed in anesthetized mice, and 20 μl of an iso-osmolar solution of 0.1 M hydrochloric acid (pH 1.0) was instilled. […] After recovery, mice were transferred to ventilated cages with access to food and water. […] At the described time points, pulmonary function and oxygen tension in arterial blood of treated mice were measured as previously described (Reference 7). To measure cell proliferation, 100 mg/kg 5-ethynyl-2′-deoxyuridine (EDU) was i.p. injected into mice one hour before sacrificing, and EDU incorporation was measured by EDU cell proliferation kit. Mice were i.p. supplemented with 1 ml PBS after all surgery procedures.
Injection of growth factor and treatment of HDAC and DNMT inhibitors. Three months old (young) mice were subjected to PNX, PH or kidney I/R and injected with 20 μg/kg P1GF or equal molar amounts of PDGF-BB, HGF, VEGF165, or TGFβ1 every three days. 3-mon Nrp1^+/+, Nrp1^iΔEC/iΔEC, or Hif2a^iΔEC/iΔEC mice were also treated with P1GF. To test the regulation of P1GF and NRP1, old mice were treated with 10 mg/kg HDAC inhibitor VPA, 0.5 mg/kg DNMT1 inhibitor azacitidine (AZA), or combinatorial treatment of VPA and AZA (VPA+AZA). Expression of EPCR and NRP1 proteins in isolated lung, liver, and kidney ECs were tested by immunoblot, and P1GF amounts in homogenized organs was tested by ELISA.

mouse liver fibrosis = assay: CCl4 liver injury / fibrosis model; format: in vivo; details: Nrp1 iΔEC/iΔEC mice after chronic injury
Procedure: Animal Care and Mouse lines used.
Mouse liver regeneration and repair models. Mouse liver regeneration was induced by PH.
Tissue fibrosis determination. Lung, liver and kidney fibrotic responses were determined at the indicated time after injury. Tissues were homogenized in tissue lysis buffer. Immunoblot of Collagen I was performed with the obtained tissue lysates. Protein level of Collagen I was compared between different groups. Sirius red and hematoxylin stainings were performed on paraffin-embedded tissue sections to determine the tissue morphology and Collagen deposition and distribution (Reference 8). Sirius red-positive fibrotic parenchyma was determined from five random fields in each section and quantified. Hydroxyproline amount was quantified in the liver and lung to determine the extent of fibrosis.

kidney fibrosis = assay: Folic acid kidney fibrosis model; format: in vivo, mouse; details: Nrp1 iΔEC/iΔEC mice after chronic injury
Procedure: Animal Care and Mouse lines used. […] This mouse line was crossed with floxed Nrp1 […] mice to generate […] and control mice. […] Mouse kidney regeneration and repair models. Mouse kidney I/R model was adopted from described (Reference 72). After mice were anesthetized, ischemia was induced by the retroperitoneal approach on both kidneys for 30 min. Sham operation was carried out with exposure of kidneys without inducing ischemia. To generate kidney fibrosis, mice were given a single i.p. injection of folic acid at the dose of 250 mg/kg, as previously described (Reference 74). […] At indicated time, serum creatinine concentration was measured by the picric acid method, and tissue morphology and fibrosis were analyzed by Sirius red and hematoxylin co-stainings. Tissue fibrosis determination. Lung, liver and kidney fibrotic responses were determined at the indicated time after injury. Tissues were homogenized in tissue lysis buffer. Immunoblot of Collagen I was performed with the obtained tissue lysates. Protein level of Collagen I was compared between different groups. […] Sirius red-positive fibrotic parenchyma was determined from five random fields in each section and quantified. Hydroxyproline amount was quantified in the liver and lung to determine the extent of fibrosis.

[4] = 20 ng/ml TIMP1, co-treatment with 10 ng/ml TGF-β1

Molecule: c1cc(CN2CCCNCCNCCCNCC2)ccc1CN1CCCNCCNCCCNCC1 [AMD3100]
- TIMP1 upregulation in the macrophages of old organs (TIMP1): attenuated

Molecule: CCCC(CCC)C(=O)O [VPA, valproic acid]
- expression of NRP1 in lung ECs (NRP1): reduced

Molecule: TIMP1: recombinant tissue inhibitor of metalloproteinases 1 incubated with fibroblast cells
- phosphorylation of Smad2 ([1]; 20 ng/ml TIMP1): augmented
- smooth muscle cell actin (SMA) protein expression ([1]; 20 ng/ml TIMP1): augmented
- phosphorylation of Smad2 [1, 4]: further enhanced
- smooth muscle cell actin (SMA) protein expression [1, 4]: further enhanced

B1: P1GF: placenta growth factor, NRP1 ligand, injected into mice (protein, UniProt P49763 19-221, looked up)
Placenta growth factor: LPAVPPQQWALSAGNGSSEVEVVPFQEVWGRSYCRALERLVDVVSEYPSEVEHMFSPSCVSLLRCTGCCGDENLHCVPVETANVTMQLLKIRSGDRPSYVELTFSQHVRCECRHSPGRQSPDMPGDFRADAPSFLPPRRSLPMLFRMEWGCALTGSQSAVWPSSPVPEEIPRMHPGRNGKKQQRKPLREKMKPERCGDAVPRR
- EPCR upregulation in liver ECs (EPCR [2]): did not prohibit
- effect of P1GF on EPCR / HIF2a (EPCR [3]; Nrp1 iΔEC/iΔEC mice after PNX): abrogated
- EPCR in lung ECs (EPCR [3]; young Hif2a iΔEC/iΔEC mice after PNX): did not suppress
- HIF2a in lung ECs (EPCR [3]; young mice after PNX, 20 μg/kg): enhanced
- EPCR expression in lung ECs (EPCR [3]; young mice after PNX, 20 μg/kg or equal molar amounts): suppressed

B2: activated protein C (protein, UniProt P04070 200-461, looked up)
Vitamin K-dependent protein C …: DTEDQEDQVDPRLIDGKMTRRGDSPWQVVLLDSKKKLACGAVLIHPSWVLTAAHCMDESKKLLVRLGEYDLRRWEKWELDLDIKEVFVHPNYSKSTTDNDIALLHLAQPATLSQTIVPICLPDSGLAERELNQAGQETLVTGWGYHSSREKEAKRNRTFVLNFIKIPVVPHNECSEVMSNMVSENMLCAGILGDRQDACEGDSGGPMVASFHGTWFLVGLVSWGEGCGLLHNYGVYTKVSRYLDWIHGHIRDKEAPQKSWAP
modifications: Vitamin K-dependent protein C heavy chain activated two-chain form
- EPCR expression in liver ECs (mouse liver fibrosis): enhanced
- HIF2A induction in liver ECs (mouse liver fibrosis): suppressed
- EPCR expression in kidney ECs (kidney fibrosis): enhanced
- HIF2A induction in kidney ECs (kidney fibrosis): suppressed
